Source: the supplement of paper PMC10724198
± gives the standard deviation of the averaged measurements.

Test system: Saccharomyces cerevisiae
Assay: protein stability index of tFT-peptide fusion (C-terminal peptide) (PSI (0-1 scale)); higher = more stable (slower turnover)
Details: genetic background: wild type; temperature: 30 C
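Further: PSI is a weighted mean of sequencing reads over stability bins, variants kept only with over 10 reads, mCherry proximal and sfGFP distal, peptide attached via GGGS linker.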

Sequence	protein stability index
SKLEREKQNKGY	0.634 ± 0.021
SKLRKGNSIDDR	0.625 ± 0.016
SKREYGKEYKRK	0.656 ± 0.0084
SKSCIVSNVLVY	0.511 ± 0.014
SKTIRDTYIFKR	0.816 ± 0.15
SLASCLLRPPLY	0.693 ± 0.021
SLASYFFHVSHS	0.7127 ± 0.0064
SLCLPFPSSPPP	0.677 ± 0.0083
SLDGTVHARRAH	0.695 ± 0.07
SLDISDCGFCLH	0.697 ± 0.018
SLDRASPPTSVA	0.625 ± 0.0007
SLFFGDCNLVRV	0.7166 ± 0.0036
SLFPPAPPPPRS	0.641 ± 0.098
SLFRSSHPPRPP	0.605 ± 0.034
SLFSFSLSLCSP	0.653 ± 0.06
SLFYSPSSVFSF	0.866 ± 0.13
SLGCLLENRRGL	0.641 ± 0.015
SLGGFLPPESFV	0.708 ± 0.049
SLGSRFWGPYPF	0.679 ± 0.029
SLGVPVVWGLWI	0.744 ± 0.032
SLILSAGLGFFF	0.719 ± 0.095
SLKELSYKGTLR	0.65 ± 0.038
SLLHGVFFWVLT	0.572 ± 0.013
SLLPLSTPPASP	0.624 ± 0.0079
SLLRPPHASFSS	0.688 ± 0.044
SLLSLPPSRAPS	0.666 ± 0.022

Sequence	protein stability index
SLLTLVIPTLFS	0.665 ± 0.0048
SLPDSLPRPPPS	0.656 ± 0.072
SLPFSPSFLSSF	0.67 ± 0.015
SLPLIPCPSPPL	0.751 ± 0.065
SLPLPNTPVPPI	0.723 ± 0.081
SLPPHPAPPPAA	0.757 ± 0.014
SLPPLDTPPSSC	0.73 ± 0.14
SLPPPSSPPPPL	0.692 ± 0.089
SLPPSRSPSPTL	0.665 ± 0.13
SLPRPPRPPQSH	0.677 ± 0.038
SLQPRRGQPVTG	0.711 ± 0.0078
SLQRLFGRGGMV	0.643 ± 0.1
SLRICGAFPRTF	0.705 ± 0.0092
SLRLFVPVYPPP	0.576 ± 0.078
SLRRPPPRSRNG	0.654 ± 0.048
SLSIFTSFLVLF	0.598 ± 0.021
SLSLFYFRFFPF	0.661 ± 0.05
SLSPPSSPLPPP	0.703 ± 0.053
SLSRSFCRAHRS	0.722 ± 0.047
SLSVPPRPSSPP	0.624 ± 0.017
SLVAFAKMANFV	0.633 ± 0.044
SLWLRLAIPSRY	0.68862 ± 0.00061
SMASQLSQRGSD	0.641 ± 0.076
SMFRNSWRKNKS	0.602 ± 0.012
SMRFLGIKLKKY	0.648 ± 0.023
SMSEYGLLTMLE	0.669 ± 0.011

Sequence	protein stability index
SNERWCGCGLLW	0.764 ± 0.0097
SNIKEYKSINGR	0.666 ± 0.02
SNKDLELVSTVC	0.658 ± 0.002
SNLPVSSLPSLS	0.6818 ± 0.0048
SNLRSPFPSLPL	0.714 ± 0.022
SNPGGYCPQGVP	0.731 ± 0.024
SNRRSSRSLYYM	0.698 ± 0.033
SNVRSRGAGISM	0.729 ± 0.087
SPAASPVPLHPR	0.603 ± 0.15
SPAGGPRGGEGV	0.678 ± 0.075
SPAGGPSGGEGV	0.674 ± 0.062
SPARPPFPPPPL	0.72 ± 0.029
SPASIVPTLELA	0.638 ± 0.024
SPCARPPPFPAR	0.724 ± 0.034
SPCLLPPPRSSP	0.737 ± 0.027
SPCRSPPPDLPQ	0.645 ± 0.1
SPFLTPPPPRPA	0.682 ± 0.024
SPFPPLPSRPPP	0.676 ± 0.0097
SPFSPTAPPPPP	0.718 ± 0.017
SPHPLLSSPPPA	0.686 ± 0.075
SPIIVCLFDLGF	0.654 ± 0.037
SPLLFLLPPAAP	0.692 ± 0.062
SPLLPFPLPPSI	0.718 ± 0.018
SPLPADSHPLPP	0.667 ± 0.015
SPLPPPLPPFPP	0.6171 ± 0.0056
SPLPRPHRGPPP	0.58 ± 0.054

Sequence	protein stability index
SPMELEHSSAVP	0.6605 ± 0.0046
SPPAALLPLFLR	0.676 ± 0.051
SPPAPLPPPLPR	0.648 ± 0.025
SPPFLPPLITFP	0.681 ± 0.023
SPPLPPLGFNPP	0.6414 ± 0.0025
SPPPARLLPPPS	0.723 ± 0.12
SPPPLPHPPAAS	0.698 ± 0.023
SPPPLPPPPPSP	0.68 ± 0.036
SPPPPLTSLVPP	0.688 ± 0.075
SPPPPPLPPAYL	0.681 ± 0.012
SPPPPPLPPPHP	0.6564 ± 0.0035
SPPPPQEADYVV	0.62 ± 0.026
SPPPPRAPTPPP	0.698 ± 0.035
SPPPPSRPTLPP	0.593 ± 0.011
SPPPRSPRPFPG	0.6757 ± 0.0012
SPPPSPAPPPPP	0.684 ± 0.083
SPPPSSSPPPSP	0.612 ± 0.03
SPPPTPPGLLLL	0.694 ± 0.012
SPPPTSQHSGPP	0.657 ± 0.042
SPPRATVRPTSP	0.824 ± 0.078
SPPRPSSPRASP	0.664 ± 0.074
SPPSFLPLPLPS	0.675 ± 0.033
SPPSHPHRPTFP	0.753 ± 0.28
